# How the values were obtained:
# [1] = test system: O=c1ccn([C@@H]2O[C@H](COP(=O)(O)OP(=O)(O)O)[C@@H](O)[C@H]2O)c(=O)[nH]1; test: purified protein; assay type: biochemical, Micractinium conductrix; conditions: 200 mM sucrose, 50 mM HEPES-NaOH pH 7.0, 37°C, sucrose cleavage direction, apparent
# [2] = test system: OC[C@H]1O[C@@](CO)(O[C@H]2O[C@H](CO)[C@@H](O)[C@H](O)[C@H]2O)[C@@H](O)[C@@H]1O; test: purified protein; assay type: biochemical, Micractinium conductrix; conditions: 2 mM UDP, 50 mM HEPES-NaOH pH 7.0, 37°C, sucrose cleavage direction, apparent
# McSuSy (Micractinium conductrix; S31D), sequence (chain, as listed by the source S31D): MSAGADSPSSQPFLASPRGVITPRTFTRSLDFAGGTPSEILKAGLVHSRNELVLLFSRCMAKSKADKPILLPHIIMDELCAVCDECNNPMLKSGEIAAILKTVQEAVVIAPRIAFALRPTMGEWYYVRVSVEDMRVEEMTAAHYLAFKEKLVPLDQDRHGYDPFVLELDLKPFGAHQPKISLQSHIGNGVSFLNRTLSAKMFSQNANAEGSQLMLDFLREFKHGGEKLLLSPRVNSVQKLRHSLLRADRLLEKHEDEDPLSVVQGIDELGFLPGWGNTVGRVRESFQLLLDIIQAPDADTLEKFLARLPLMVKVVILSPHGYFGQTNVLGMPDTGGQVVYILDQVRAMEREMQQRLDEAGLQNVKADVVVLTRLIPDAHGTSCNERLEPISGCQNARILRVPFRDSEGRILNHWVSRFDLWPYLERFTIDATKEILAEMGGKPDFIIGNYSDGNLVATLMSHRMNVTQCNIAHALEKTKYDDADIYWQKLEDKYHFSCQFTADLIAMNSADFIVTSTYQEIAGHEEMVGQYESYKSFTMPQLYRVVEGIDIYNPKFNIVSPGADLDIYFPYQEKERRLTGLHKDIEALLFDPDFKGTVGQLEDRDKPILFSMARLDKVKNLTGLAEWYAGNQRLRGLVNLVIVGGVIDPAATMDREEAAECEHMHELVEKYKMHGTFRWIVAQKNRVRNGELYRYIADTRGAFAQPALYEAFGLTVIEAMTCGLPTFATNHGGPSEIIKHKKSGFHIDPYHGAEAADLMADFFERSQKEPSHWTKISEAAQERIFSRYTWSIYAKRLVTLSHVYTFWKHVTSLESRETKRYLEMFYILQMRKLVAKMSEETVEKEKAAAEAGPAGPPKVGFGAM
# McSuSy (Micractinium conductrix), sequence (chain, as listed by the source): as the sequence (chain, as listed by the source S31D) above, with D31S counted along it
Substance,Km [1] [mM],Vmax [1] [µmol/min/mg],kcat [1] [s⁻¹],kcat/Km [1] [M⁻¹ s⁻¹],Km [2] [mM]
McSuSy (Micractinium conductrix),0.14,10.4,17.3,124000,90
McSuSy (Micractinium conductrix; S31D),0.092,11.4,19,206000,88
